According to paper PMC8973293:

What was measured:
[1] = target: human FcγRIIIa-158V (human); assay: SPR; Biacore T200; analysis of Fc-Fc receptor binding; who was immobilised and the conditions are not given
[2] = target: murine FcγRIV (mouse); assay: as above

Row | Binder | Kd [1] | Kd [2]
1 | HuE71-IgG1 (antibody, V domains shown) VH: QVQLVQPGDELVKPGASVKLSCKASGYTFTSYWMQWVKQRPGQGLEWIGEINPSNGRTNYNEMFKSKAVLSVDKSVSTAYMQLSSLTAEDTAVYYCALYDGYYAMDYWGQGTLVTVSS VL: DIVMTQSPSSLAVSVGERVTMSCKSSQSLLYSSNQKNYLAWYQQKPGQSPKLLIYWASTRESGVPDRFSGSGSGTDFTLTISSVKAEDVALYYCQQYHSYPFTFGQGTKLEIK | 873 nM | 724 nM
2 | HuE71-IgG1-Afuco (antibody, V domains shown) VH: QVQLVQPGDELVKPGASVKLSCKASGYTFTSYWMQWVKQRPGQGLEWIGEINPSNGRTNYNEMFKSKAVLSVDKSVSTAYMQLSSLTAEDTAVYYCALYDGYYAMDYWGQGTLVTVSS VL: DIVMTQSPSSLAVSVGERVTMSCKSSQSLLYSSNQKNYLAWYQQKPGQSPKLLIYWASTRESGVPDRFSGSGSGTDFTLTISSVKAEDVALYYCQQYHSYPFTFGQGTKLEIK | 286 nM | 227 nM
3 | Desferrioxamine-HuE71-IgG1 (antibody, V domains shown) VH: QVQLVQPGDELVKPGASVKLSCKASGYTFTSYWMQWVKQRPGQGLEWIGEINPSNGRTNYNEMFKSKAVLSVDKSVSTAYMQLSSLTAEDTAVYYCALYDGYYAMDYWGQGTLVTVSS VL: DIVMTQSPSSLAVSVGERVTMSCKSSQSLLYSSNQKNYLAWYQQKPGQSPKLLIYWASTRESGVPDRFSGSGSGTDFTLTISSVKAEDVALYYCQQYHSYPFTFGQGTKLEIK | 664 nM | 539 nM
4 | Desferrioxamine-HuE71-IgG1-Afuco (antibody, V domains shown) VH: QVQLVQPGDELVKPGASVKLSCKASGYTFTSYWMQWVKQRPGQGLEWIGEINPSNGRTNYNEMFKSKAVLSVDKSVSTAYMQLSSLTAEDTAVYYCALYDGYYAMDYWGQGTLVTVSS VL: DIVMTQSPSSLAVSVGERVTMSCKSSQSLLYSSNQKNYLAWYQQKPGQSPKLLIYWASTRESGVPDRFSGSGSGTDFTLTISSVKAEDVALYYCQQYHSYPFTFGQGTKLEIK | 294 nM | 219 nM
